“Also recorded” adds a separate entry of the source.
Columns and labels:
Type in all cases: cell-based
[1] = target: T1, FGFR1c/betaKlotho-expressing BaF3 cells (Mus musculus, UniProt P16092+Q99N32); assay: DNA synthesis (thymidine incorporation) in FGFR1c/betaKlotho-expressing BaF3 cells; settings: BaF3 cells expressing FGFR1c and betaKlotho; presence or absence of heparin
T1 construct: the entire-length cDNA of mouse FGFR1c had been cloned; the entire-length cDNA of mouse betaKlotho was cloned into an animal cell expression vector; expressed in transfected cells; host or cells: BaF3 (mouse pro-B) cells
T1 sequence (P16092 22-822): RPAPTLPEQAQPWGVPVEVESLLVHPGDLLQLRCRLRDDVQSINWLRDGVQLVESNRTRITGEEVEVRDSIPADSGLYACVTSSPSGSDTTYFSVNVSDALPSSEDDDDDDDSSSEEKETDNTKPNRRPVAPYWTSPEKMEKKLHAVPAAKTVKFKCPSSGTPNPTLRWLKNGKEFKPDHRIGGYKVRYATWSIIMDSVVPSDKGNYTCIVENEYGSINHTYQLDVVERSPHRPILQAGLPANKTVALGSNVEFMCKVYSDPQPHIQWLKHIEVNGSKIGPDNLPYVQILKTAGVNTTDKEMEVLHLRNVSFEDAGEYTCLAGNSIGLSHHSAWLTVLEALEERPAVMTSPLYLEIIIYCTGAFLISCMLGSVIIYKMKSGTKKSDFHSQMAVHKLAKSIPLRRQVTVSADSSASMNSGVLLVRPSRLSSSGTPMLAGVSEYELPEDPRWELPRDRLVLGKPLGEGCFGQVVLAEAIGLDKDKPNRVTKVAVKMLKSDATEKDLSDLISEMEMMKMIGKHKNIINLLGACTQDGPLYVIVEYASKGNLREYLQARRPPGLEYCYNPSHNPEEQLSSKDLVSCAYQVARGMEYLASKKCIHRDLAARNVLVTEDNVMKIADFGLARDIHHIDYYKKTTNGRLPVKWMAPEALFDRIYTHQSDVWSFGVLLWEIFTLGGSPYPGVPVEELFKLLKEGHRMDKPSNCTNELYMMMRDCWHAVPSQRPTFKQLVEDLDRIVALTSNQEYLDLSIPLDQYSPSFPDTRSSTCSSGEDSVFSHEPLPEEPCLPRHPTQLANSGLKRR
T1 sequence (Q99N32 whole entry): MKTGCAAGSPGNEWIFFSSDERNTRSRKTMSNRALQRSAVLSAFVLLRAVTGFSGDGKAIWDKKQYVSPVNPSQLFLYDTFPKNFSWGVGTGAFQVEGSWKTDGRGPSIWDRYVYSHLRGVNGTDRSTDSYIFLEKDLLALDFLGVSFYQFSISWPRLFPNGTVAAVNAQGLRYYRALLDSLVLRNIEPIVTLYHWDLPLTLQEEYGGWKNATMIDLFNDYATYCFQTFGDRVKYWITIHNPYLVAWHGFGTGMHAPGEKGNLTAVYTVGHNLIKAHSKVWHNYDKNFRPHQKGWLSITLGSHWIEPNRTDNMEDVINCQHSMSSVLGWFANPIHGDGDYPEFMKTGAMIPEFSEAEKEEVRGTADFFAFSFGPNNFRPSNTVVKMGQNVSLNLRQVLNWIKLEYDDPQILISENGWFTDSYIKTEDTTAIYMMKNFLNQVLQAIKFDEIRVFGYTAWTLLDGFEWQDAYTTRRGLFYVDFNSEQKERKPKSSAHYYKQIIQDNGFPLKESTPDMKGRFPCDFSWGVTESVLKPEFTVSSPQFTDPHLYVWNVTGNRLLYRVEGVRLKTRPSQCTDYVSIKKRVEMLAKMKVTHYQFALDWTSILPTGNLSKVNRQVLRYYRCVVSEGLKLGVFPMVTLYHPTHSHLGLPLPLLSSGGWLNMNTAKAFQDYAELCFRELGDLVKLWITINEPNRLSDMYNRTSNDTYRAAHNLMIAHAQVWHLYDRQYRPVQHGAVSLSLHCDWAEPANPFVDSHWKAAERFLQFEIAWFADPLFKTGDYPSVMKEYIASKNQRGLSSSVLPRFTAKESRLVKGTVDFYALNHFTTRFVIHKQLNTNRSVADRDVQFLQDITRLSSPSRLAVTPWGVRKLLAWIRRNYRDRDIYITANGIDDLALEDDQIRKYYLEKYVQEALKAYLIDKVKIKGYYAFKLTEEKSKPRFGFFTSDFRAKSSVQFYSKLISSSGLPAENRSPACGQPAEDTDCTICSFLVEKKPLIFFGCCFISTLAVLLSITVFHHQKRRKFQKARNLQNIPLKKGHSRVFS
Description: A commonly used measurement method is a cell growth stimulating activity measurement method described in Ornitz, D. M., Xu, J., Colvin, J. S., McEwen, D. G., MacArthur, C. A., Coulier, F., Gao, G. and Goldfarb, M. (1996) Receptor specificity of the fibroblast growth factor family. J Biol Chem, 271, 15292-15297. The summary thereof is as follows. FGF used as a measurement target is added to a culture solution containing a cultured cell having an FGF receptor on the surface thereof, and the obtained mixture is cultured for a certain period of time. Thereafter, a labeled thymidine is added to the culture solution, followed by further culture for a certain period of time. By measuring the amount of the labeled thymidine incorporated into polymeric DNA during the culture, the degree of FGF to activate DNA synthesis is evaluated. (In the present invention as well, this method was adopted when the activity of FGF21 was measured in Examples 4, 5, 6, 8, 9, and 10.)
FGFR1c-expressing BaF3 cells and FGFR1c- and betaKlotho-expressing BaF3 cells were prepared as follows. In the case of FGFR1c-expressing BaF3 cells, an animal cell expression vector into which the entire-length cDNA of mouse FGFR1c had been cloned (described in Ornitz, D. M., Xu, J., Colvin, J. S., McEwen, D. G., MacArthur, C. A., Coulier, F., Gao, G. and Goldfarb, M. (1996) Receptor specificity of the fibroblast growth factor family. J Biol Chem, 271, 15292-15297.) was introduced into BaF3 cells by an electroporation method. The cells were then cultured in the presence of G418 for approximately 2 weeks, so as to obtain drug-resistant clones. Thereafter, such clones were obtained as those capable of growing as a result of FGF1 stimulation. In the case of both FGFR1c- and betaKlotho-expressing BaF3 cells, the entire-length cDNA of mouse betaKlotho was cloned into an animal cell expression vector, and it was then introduced into the FGFR1c-expressing BaF3 cells. The cells were then cultured in the presence of Puromycin and G418 for approximately 2 weeks, so as to obtain drug-resistant clones. In the case of only betaKlotho-expressing BaF3 cells, a betaKlotho-expressing vector was introduced into BaF3 cells, and Puromycin-resistant clones were then obtained. The BaF3 cells, into which the aforementioned genes had been each introduced, were maintained in an RPMI1640 medium containing 10% FBS and interleukin 3 (IL3, supplied by adding a 5% condition medium of WEHI-3 cells). For the growth stimulation experiment, the cells were washed with an RPMI1640 medium, and they were then suspended in an RPMI1640 medium containing 10% FBS, followed by inoculating the suspension on a culture plate. Thereafter, the resultant cells were used.
Immediately after inoculation, BaF3 cells that had expressed each clone and only FGFR1c were stimulated by addition of FGF21 (open bar) or PBS (filled bar) used as a control in the presence of heparin, and they were then cultured for 42 hours. Thereafter, tritium-labeled thymidine was added to the culture solution, and the culture was further continued for 6 hours. Thereafter, the amount of thymidine incorporated into the cells was measured, so as to evaluate DNA synthesis. A DNA synthesis value obtained when the cells were not stimulated with FGF21 was defined as 1, and the ratio of a DNA synthesis value obtained by stimulating with FGF21 to the aforementioned DNA synthesis value was expressed using magnification. […]

[2] = target: T2, humanized FGFR1c (hR1c)-expressing BaF3 cells (Homo sapiens, UniProt P11362); assay: DNA synthesis in humanized FGFR1c-expressing BaF3 cells; settings: humanized FGFR1c only; 10 μg/ml heparin
T2 construct: expressed in transfected cells; host or cells: BaF3 (mouse pro-B) cells; pSRalpha vector
T2 sequence (P11362 22-822): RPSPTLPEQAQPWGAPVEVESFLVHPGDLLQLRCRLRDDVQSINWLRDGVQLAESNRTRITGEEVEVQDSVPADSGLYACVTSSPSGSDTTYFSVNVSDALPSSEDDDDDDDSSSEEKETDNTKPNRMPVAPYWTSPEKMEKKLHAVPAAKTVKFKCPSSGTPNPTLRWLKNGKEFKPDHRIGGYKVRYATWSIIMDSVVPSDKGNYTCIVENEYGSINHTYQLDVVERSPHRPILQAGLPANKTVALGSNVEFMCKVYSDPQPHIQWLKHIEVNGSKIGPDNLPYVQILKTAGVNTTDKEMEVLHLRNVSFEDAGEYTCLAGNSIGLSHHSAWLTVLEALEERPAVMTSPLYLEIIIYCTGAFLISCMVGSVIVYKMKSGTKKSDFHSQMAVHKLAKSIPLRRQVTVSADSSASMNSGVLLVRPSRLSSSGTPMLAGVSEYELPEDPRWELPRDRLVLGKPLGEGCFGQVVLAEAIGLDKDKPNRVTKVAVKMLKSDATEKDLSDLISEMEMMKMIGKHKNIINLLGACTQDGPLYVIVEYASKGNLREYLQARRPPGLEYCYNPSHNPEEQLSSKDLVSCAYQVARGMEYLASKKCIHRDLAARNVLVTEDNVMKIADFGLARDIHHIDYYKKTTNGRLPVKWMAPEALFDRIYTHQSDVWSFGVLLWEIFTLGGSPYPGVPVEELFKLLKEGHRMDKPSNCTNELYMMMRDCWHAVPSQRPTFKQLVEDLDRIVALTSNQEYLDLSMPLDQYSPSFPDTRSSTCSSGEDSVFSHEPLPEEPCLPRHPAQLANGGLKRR
From the text: In Examples 4, 5, 6, and 7, it was shown that FGF21 reacts with FGFR1c in the presence of betaKlotho. FGFR1c, betaKlotho, FGF21, and the like, which were used in an actual experimental system, were all derived from mice used as typical mammalian models. With regard to these molecules, the homology between a human and a mouse at the amino acid sequence level is extremely high (80% in FGF21, 78% in betaKlotho, and 98% in FGFR1). As a result, naturally, there are no problems regarding the compatibility of the human with the mouse, and thus it is clear that the same results as those from a murine molecule will be obtained even using a humanized molecule. In the present example, as a precautionary measure, an experimental system using a humanized molecule was constructed to confirm such respect, and an experiment was carried out. Specifically, the humanized cDNA of FGFR1c and that of betaKlotho were prepared from a commercially available human RNA sample (Takara Bio Inc.) by PCR. FGFR1c was introduced into an expression vector having an SRalpha promoter (pSRalpha), and betaKlotho was introduced into an expression vector having a CMV promoter (pcDNA3.1; Invitrogen). […] In the presence of heparin, humanized FGF21 was added in various types of concentrations to FGFR1c-expressing cells or FGFR1c/betaKlotho-co-expressing cells, and the amount of DNA synthesized was then measured.

[3] = test system: 3T3-L1 fibroblasts forced to express betaKlotho; assay: Phosphorylation of FRS2 and MAPK in undifferentiated 3T3-L1 cells forced to express betaKlotho; settings: betaKlotho expression vector; FGF21 1.1 μg/ml and 4.5 μg/ml; 10 minutes
Description: A betaKlotho expression vector produced by the method described in Example 4 and an empty vector used as a control, into which betaKlotho cDNA had not been inserted, were introduced into 3T3-L1 fibroblasts cultured as described in Example 1 by a lipofection method, thereby obtaining Puromycin-resistant clones. These different types of cells were stimulated with FGF21, and 10 minutes after the stimulation, a cell lysate was prepared. The activation of FRS2 and MAPK that were signaling molecules located downstream of FGFR was examined by a Western blotting method.

| Molecule | DNA synthesis (thymidine incorporated into the cells) [1] | amount of DNA synthesized (thymidine incorporation) [2] | phosphorylation levels of FRS2 and MAPK [3] |
| --- | --- | --- | --- |
| FGF1: conventional FGF used as a control | reacts with all of the receptors | promoted the DNA synthesis |  |
| FGF21: fibroblast growth factor 21; mouse-derived protein used in Examples 1-7 and 10-13 (protein) AYPIPDSSPLLQFGGQVRQRYLYTDDDQDTEAHLEIREDGTVVGAAHRSPESLLELKALKPGVIQILGVKASRFLCQQPDGALYGSPHFDPEACSFRELLLEDGYNVYQSEAHGLPLRLPQKDSPNQDATSWGPVRFLPMPGLLHEPQDQAGFLPPEPPDVGSSDPLSMVEPLQGRSPSYAS | reacted with FGF21; also recorded: dose-dependently stimulate DNA synthesis; also recorded: activates; also recorded: able to act on FGFR1c-expressing cells |  | increased |
